Paper PMC7721647, “The Human RNA Helicase DDX21 Presents a Dimerization Interface Necessary for Helicase Activity” (iScience, 2020)

How the values were obtained:
[1] = target: DDX21_(Core-DD) (human); test: SEC-MALS; purified DDX21 constructs alone; conditions in the Transparent Methods (not shown)
[2] = target: DDX21_(Core-DD) (human); test: SEC-SAXS; SAXS coupled to size exclusion chromatography; oligomeric state from SAXS molecular weight estimates (Table S3)
[3] = target: DDX21_(Core-DD) (human); test: mass photometry; purified proteins alone in the low nanomolar range (30 and 15 nM); monomer to dimer
[4] = target: the molecule itself; test: cell-based or functional assay
[5] = target: the molecule itself; test: SEC-SAXS; SAXS coupled to size exclusion chromatography; oligomeric state from SAXS molecular weight estimates (Table S3)
[6] = target: the molecule itself; test: SEC-MALS; purified DDX21 constructs alone; conditions in the Transparent Methods (not shown)
[7] = target: the molecule itself; test: mass photometry; DDX21Fl-R-loop complex at 30 nM
[8] = target: T1, DDX21Fl (human, UniProt Q9NR30 1-783); test: fluorescence polarization; FP: 50 mM Tris pH 7.5, 50 mM KCl, 5 mM MgCl2, no ATP; Hill-slope fit; temperature not given in the material; conditions: protein: recombinant; tags: N-terminal Trx-His6, cut with thrombin; chain copies: 2; label: 5'-FAM on RNA; R-loop: 15-mer RNA on DNA oligo 1; DNA duplex arms with unpaired DNA oligo 2 loop
T1 sequence: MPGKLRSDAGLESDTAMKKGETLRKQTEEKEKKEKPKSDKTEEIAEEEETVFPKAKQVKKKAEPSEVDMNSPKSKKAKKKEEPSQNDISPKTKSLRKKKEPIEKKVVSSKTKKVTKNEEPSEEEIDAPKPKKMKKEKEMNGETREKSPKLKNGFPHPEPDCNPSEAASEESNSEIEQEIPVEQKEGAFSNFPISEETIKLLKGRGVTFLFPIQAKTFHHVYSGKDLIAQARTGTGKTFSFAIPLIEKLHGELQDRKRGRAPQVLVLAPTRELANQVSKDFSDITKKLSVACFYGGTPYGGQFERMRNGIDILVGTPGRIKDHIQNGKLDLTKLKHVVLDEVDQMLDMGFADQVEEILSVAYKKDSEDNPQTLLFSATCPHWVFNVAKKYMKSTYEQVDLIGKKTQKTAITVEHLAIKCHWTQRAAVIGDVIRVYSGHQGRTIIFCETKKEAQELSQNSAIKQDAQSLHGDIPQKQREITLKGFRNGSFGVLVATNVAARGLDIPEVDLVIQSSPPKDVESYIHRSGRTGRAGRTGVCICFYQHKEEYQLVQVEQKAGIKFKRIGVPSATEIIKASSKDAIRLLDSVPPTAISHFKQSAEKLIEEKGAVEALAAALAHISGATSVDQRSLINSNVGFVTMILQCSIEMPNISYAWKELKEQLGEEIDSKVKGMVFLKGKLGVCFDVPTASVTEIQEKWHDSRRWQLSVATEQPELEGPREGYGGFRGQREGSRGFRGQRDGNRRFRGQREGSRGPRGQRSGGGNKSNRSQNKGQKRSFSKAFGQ

DDX21_(Core-DD) (domain or fragment)
stoichiometry N [1]: 2 | stoichiometry N [2]: 2 | stoichiometry N [3]: 2

B1: DDX21ΔN monomer mutant (domain or fragment)
chain: GAFSNFPISEETIKLLKGRGVTFLFPIQAKTFHHVYSGKDLIAQARTGTGKTFSFAIPLIEKLHGELQDRKRGRAPQVLVLAPTRELANQVSKDFSDITKKLSVACFYGGTPYGGQFERMRNGIDILVGTPGRIKDHIQNGKLDLTKLKHVVLDEVDQMLDMGFADQVEEILSVAYKKDSEDNPQTLLFSATCPHWVFNVAKKYMKSTYEQVDLIGKKTQKTAITVEHLAIKCHWTQRAAVIGDVIRVYSGHQGRTIIFCETKKEAQELSQNSAIKQDAQSLHGDIPQKQREITLKGFRNGSFGVLVATNVAARGLDIPEVDLVIQSSPPKDVESYIHRSGRTGRAGRTGVCICFYQHKEEYQLVQVEQKAGIKFKRIGVPSATEIIKASSKDAIRLLDSVPPTAISHFKQSAEKLIEEKGAVEARRRRRRHISGATSVDQRSLINSNVGFVTMILQCSIEMPNISYAWKELKEQLGEEIDSKVKGMVFLKGKLGVCFDVPTASVTEIQEKWHDSRRWQLSVATEQPELEGPREGYGGFRGQREGSRGFRGQRDGNRRFRGQREGSRGPRGQRSGGGNKSNRSQNKGQKRSFSKAFGQ
dsRNA unwinding (in vitro helicase assay with RNase T1), activity relative to the dimeric protein [4]: ~50%

B2: DDX21ΔN (domain or fragment, human, UniProt Q9NR30 186-783, looked up)
chain: GAFSNFPISEETIKLLKGRGVTFLFPIQAKTFHHVYSGKDLIAQARTGTGKTFSFAIPLIEKLHGELQDRKRGRAPQVLVLAPTRELANQVSKDFSDITKKLSVACFYGGTPYGGQFERMRNGIDILVGTPGRIKDHIQNGKLDLTKLKHVVLDEVDQMLDMGFADQVEEILSVAYKKDSEDNPQTLLFSATCPHWVFNVAKKYMKSTYEQVDLIGKKTQKTAITVEHLAIKCHWTQRAAVIGDVIRVYSGHQGRTIIFCETKKEAQELSQNSAIKQDAQSLHGDIPQKQREITLKGFRNGSFGVLVATNVAARGLDIPEVDLVIQSSPPKDVESYIHRSGRTGRAGRTGVCICFYQHKEEYQLVQVEQKAGIKFKRIGVPSATEIIKASSKDAIRLLDSVPPTAISHFKQSAEKLIEEKGAVEALAAALAHISGATSVDQRSLINSNVGFVTMILQCSIEMPNISYAWKELKEQLGEEIDSKVKGMVFLKGKLGVCFDVPTASVTEIQEKWHDSRRWQLSVATEQPELEGPREGYGGFRGQREGSRGFRGQRDGNRRFRGQREGSRGPRGQRSGGGNKSNRSQNKGQKRSFSKAFGQ
notes: human DDX21 without the N-terminal 185 amino acids (start 186 worked out from this statement); source: Transparent Methods
stoichiometry N [5]: 2

B3: DDX21Fl monomer mutant (enzyme)
chain: MPGKLRSDAGLESDTAMKKGETLRKQTEEKEKKEKPKSDKTEEIAEEEETVFPKAKQVKKKAEPSEVDMNSPKSKKAKKKEEPSQNDISPKTKSLRKKKEPIEKKVVSSKTKKVTKNEEPSEEEIDAPKPKKMKKEKEMNGETREKSPKLKNGFPHPEPDCNPSEAASEESNSEIEQEIPVEQKEGAFSNFPISEETIKLLKGRGVTFLFPIQAKTFHHVYSGKDLIAQARTGTGKTFSFAIPLIEKLHGELQDRKRGRAPQVLVLAPTRELANQVSKDFSDITKKLSVACFYGGTPYGGQFERMRNGIDILVGTPGRIKDHIQNGKLDLTKLKHVVLDEVDQMLDMGFADQVEEILSVAYKKDSEDNPQTLLFSATCPHWVFNVAKKYMKSTYEQVDLIGKKTQKTAITVEHLAIKCHWTQRAAVIGDVIRVYSGHQGRTIIFCETKKEAQELSQNSAIKQDAQSLHGDIPQKQREITLKGFRNGSFGVLVATNVAARGLDIPEVDLVIQSSPPKDVESYIHRSGRTGRAGRTGVCICFYQHKEEYQLVQVEQKAGIKFKRIGVPSATEIIKASSKDAIRLLDSVPPTAISHFKQSAEKLIEEKGAVEARRRRRRHISGATSVDQRSLINSNVGFVTMILQCSIEMPNISYAWKELKEQLGEEIDSKVKGMVFLKGKLGVCFDVPTASVTEIQEKWHDSRRWQLSVATEQPELEGPREGYGGFRGQREGSRGFRGQRDGNRRFRGQREGSRGPRGQRSGGGNKSNRSQNKGQKRSFSKAFGQ
dsRNA unwinding (in vitro helicase assay with RNase T1), activity relative to the dimeric protein [4]: ~50%

B4: full-length DDX21 (DDX21Fl), affinity tag cleaved (enzyme, human, UniProt Q9NR30 1-783, looked up)
chain: MPGKLRSDAGLESDTAMKKGETLRKQTEEKEKKEKPKSDKTEEIAEEEETVFPKAKQVKKKAEPSEVDMNSPKSKKAKKKEEPSQNDISPKTKSLRKKKEPIEKKVVSSKTKKVTKNEEPSEEEIDAPKPKKMKKEKEMNGETREKSPKLKNGFPHPEPDCNPSEAASEESNSEIEQEIPVEQKEGAFSNFPISEETIKLLKGRGVTFLFPIQAKTFHHVYSGKDLIAQARTGTGKTFSFAIPLIEKLHGELQDRKRGRAPQVLVLAPTRELANQVSKDFSDITKKLSVACFYGGTPYGGQFERMRNGIDILVGTPGRIKDHIQNGKLDLTKLKHVVLDEVDQMLDMGFADQVEEILSVAYKKDSEDNPQTLLFSATCPHWVFNVAKKYMKSTYEQVDLIGKKTQKTAITVEHLAIKCHWTQRAAVIGDVIRVYSGHQGRTIIFCETKKEAQELSQNSAIKQDAQSLHGDIPQKQREITLKGFRNGSFGVLVATNVAARGLDIPEVDLVIQSSPPKDVESYIHRSGRTGRAGRTGVCICFYQHKEEYQLVQVEQKAGIKFKRIGVPSATEIIKASSKDAIRLLDSVPPTAISHFKQSAEKLIEEKGAVEALAAALAHISGATSVDQRSLINSNVGFVTMILQCSIEMPNISYAWKELKEQLGEEIDSKVKGMVFLKGKLGVCFDVPTASVTEIQEKWHDSRRWQLSVATEQPELEGPREGYGGFRGQREGSRGFRGQRDGNRRFRGQREGSRGPRGQRSGGGNKSNRSQNKGQKRSFSKAFGQ
notes: human DEAD-box RNA helicase DDX21, full length; Tag state is told only for the SEC-MALS mass (cleaved); Construct details are in the Transparent Methods; also called nucleolar RNA helicase II/Guα; source: Transparent Methods
stoichiometry N [6]: 2

B5: full-length DDX21 (DDX21Fl) with uncleaved affinity tag (enzyme, human, UniProt Q9NR30 1-783, looked up)
chain: MPGKLRSDAGLESDTAMKKGETLRKQTEEKEKKEKPKSDKTEEIAEEEETVFPKAKQVKKKAEPSEVDMNSPKSKKAKKKEEPSQNDISPKTKSLRKKKEPIEKKVVSSKTKKVTKNEEPSEEEIDAPKPKKMKKEKEMNGETREKSPKLKNGFPHPEPDCNPSEAASEESNSEIEQEIPVEQKEGAFSNFPISEETIKLLKGRGVTFLFPIQAKTFHHVYSGKDLIAQARTGTGKTFSFAIPLIEKLHGELQDRKRGRAPQVLVLAPTRELANQVSKDFSDITKKLSVACFYGGTPYGGQFERMRNGIDILVGTPGRIKDHIQNGKLDLTKLKHVVLDEVDQMLDMGFADQVEEILSVAYKKDSEDNPQTLLFSATCPHWVFNVAKKYMKSTYEQVDLIGKKTQKTAITVEHLAIKCHWTQRAAVIGDVIRVYSGHQGRTIIFCETKKEAQELSQNSAIKQDAQSLHGDIPQKQREITLKGFRNGSFGVLVATNVAARGLDIPEVDLVIQSSPPKDVESYIHRSGRTGRAGRTGVCICFYQHKEEYQLVQVEQKAGIKFKRIGVPSATEIIKASSKDAIRLLDSVPPTAISHFKQSAEKLIEEKGAVEALAAALAHISGATSVDQRSLINSNVGFVTMILQCSIEMPNISYAWKELKEQLGEEIDSKVKGMVFLKGKLGVCFDVPTASVTEIQEKWHDSRRWQLSVATEQPELEGPREGYGGFRGQREGSRGFRGQRDGNRRFRGQREGSRGPRGQRSGGGNKSNRSQNKGQKRSFSKAFGQ
notes: human DEAD-box RNA helicase DDX21, full length; Form used in mass photometry; also called wild-type protein; source: Transparent Methods
stoichiometry N [7]: 2

B6: R-loop (mixed)
RNA: GUUUCGGAUCGACGC
DNA 1: GTACCCGGGGATCCTCTAGAGTCGAGCGTCGATCCGAAACTTGGCACTGGCCGTCGTTTTACAAC
DNA 2: GTTGTAAAACGACGGCCAGTGCCTTTTCCCAGCCTCAATCTCATCACTCTAGAGGATCCCCGGGTAC
Kd [8]: 9.2 ± 0.7 nM
